Measured values reported in patent US10428140B2, “Anti-EphA4 antibody” (EISAI R&D MANAGEMENT CO., LTD., priority 2015, dated 2019).
Substitutions are numbered along the chain they refer to.

T1: human EphA10 (Homo sapiens, UniProt Q5JZY3)
T1 construct: a protein of the extracellular region of each human Eph receptor fused with the SEAP protein and the His tag; made in house; host or cells: Expi293F cells (culture supernatant)
T1 sequence (Q5JZY3 34-565 limits assumed): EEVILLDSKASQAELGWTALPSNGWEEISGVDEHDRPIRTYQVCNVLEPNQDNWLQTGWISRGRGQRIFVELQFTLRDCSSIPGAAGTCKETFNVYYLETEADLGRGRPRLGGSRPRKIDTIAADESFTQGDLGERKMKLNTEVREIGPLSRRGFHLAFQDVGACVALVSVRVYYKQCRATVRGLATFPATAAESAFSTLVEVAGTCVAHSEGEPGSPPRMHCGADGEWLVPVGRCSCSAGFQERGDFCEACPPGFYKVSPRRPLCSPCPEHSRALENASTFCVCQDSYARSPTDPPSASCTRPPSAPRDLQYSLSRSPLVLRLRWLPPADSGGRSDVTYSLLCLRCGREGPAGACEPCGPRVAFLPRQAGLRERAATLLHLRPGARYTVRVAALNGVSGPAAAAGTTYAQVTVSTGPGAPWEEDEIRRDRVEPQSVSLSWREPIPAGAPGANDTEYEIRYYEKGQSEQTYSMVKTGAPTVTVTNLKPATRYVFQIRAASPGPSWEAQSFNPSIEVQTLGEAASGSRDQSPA

T2: human EphB2 (Homo sapiens, UniProt P29323)
T2 construct: a protein of the extracellular region of each human Eph receptor fused with the SEAP protein and the His tag; made in house; host or cells: Expi293F cells
T2 sequence (P29323 19-543 limits assumed): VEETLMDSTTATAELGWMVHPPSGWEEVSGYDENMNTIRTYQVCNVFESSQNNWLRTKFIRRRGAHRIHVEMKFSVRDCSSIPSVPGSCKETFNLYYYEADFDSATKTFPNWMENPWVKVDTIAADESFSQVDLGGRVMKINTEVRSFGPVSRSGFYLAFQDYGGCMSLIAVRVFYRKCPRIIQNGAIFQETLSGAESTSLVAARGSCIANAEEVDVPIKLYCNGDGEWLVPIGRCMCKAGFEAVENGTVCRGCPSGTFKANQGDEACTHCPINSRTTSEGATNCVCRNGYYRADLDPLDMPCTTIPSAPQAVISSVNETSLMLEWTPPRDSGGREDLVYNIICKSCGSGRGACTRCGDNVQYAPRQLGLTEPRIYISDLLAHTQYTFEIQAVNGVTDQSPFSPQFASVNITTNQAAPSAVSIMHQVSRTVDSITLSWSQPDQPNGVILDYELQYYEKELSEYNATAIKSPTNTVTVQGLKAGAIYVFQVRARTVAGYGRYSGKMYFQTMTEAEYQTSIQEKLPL

T3: human EphB3 (Homo sapiens, UniProt P54753)
T3 construct: a protein of the extracellular region of each human Eph receptor fused with the SEAP protein and the His tag; made in house; host or cells: Expi293F cells
T3 sequence (P54753 34-559 limits assumed): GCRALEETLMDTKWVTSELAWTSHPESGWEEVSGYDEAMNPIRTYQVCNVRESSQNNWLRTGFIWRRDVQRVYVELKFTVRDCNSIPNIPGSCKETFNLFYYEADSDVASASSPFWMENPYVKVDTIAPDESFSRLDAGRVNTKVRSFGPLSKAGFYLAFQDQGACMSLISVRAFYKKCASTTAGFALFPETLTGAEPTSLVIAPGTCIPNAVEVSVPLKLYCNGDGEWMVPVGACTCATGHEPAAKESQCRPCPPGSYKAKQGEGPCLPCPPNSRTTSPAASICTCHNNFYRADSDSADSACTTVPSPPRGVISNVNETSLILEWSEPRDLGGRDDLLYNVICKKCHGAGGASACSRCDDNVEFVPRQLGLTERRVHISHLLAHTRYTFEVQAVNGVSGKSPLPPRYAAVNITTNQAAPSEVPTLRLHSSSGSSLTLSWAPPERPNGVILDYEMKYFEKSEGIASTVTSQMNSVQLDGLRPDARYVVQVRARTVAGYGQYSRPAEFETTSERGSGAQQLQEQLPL

B1: 134 (antibody, V domains shown)
VH: QVQLVQSGSELKKPGASVKVSCKASGYTFTDYSMHWVRQAPGQGLKWMGWINTETGEPTYAQGFTGRFVFSLDTSVSTAYLQISSLKAEDTAVYYCARIPLYYYGSRYWYFDVWGQGTTVTVSS
VL: EIVMTQSPATLSVSPGERATLSCRASENIYRNLAWYQQKPGQSPRLLIYAATNLADGIPARFSGSGSGTEYTLTISSLQSEDFAVYYCQHFWGTPWTFGQGTKVEIK
modifications: synthetic humanized antibody heavy chain variable region sequence; synthetic humanized antibody light chain variable region sequence
B2: 75 (antibody)
VH: B1 VH with K46E
VL: DIQMTQSPSSLSASVGDRVTITCRASENIYRNLAWYQQKPGKAPKLLVYAATNLADGVPSRFSGSGSGTDYTLTISSLQPEDFATYYCQHFWGTPWTFGQGTKVEIK
chain: ASTKGPSVFPLAPSSKSTSGGTAALGCLVKDYFPEPVTVSWNSGALTSGVHTFPAVLQSSGLYSLSSVVTVPSSSLGTQTYICNVNHKPSNTKVDKRVEPKSCDKTHTCPPCPAPPAAAPSVFLFPPKPKDTLMISRTPEVTCVVVDVSHEDPEVQFNWYVDGVEVHNAKTKPREEQFNSTFRVVSVLTVVHQDWLNGKEYKCKVSNKGLPAPIEKTISKTKGQPREPQVYTLPPSREEMTKNQVSLTCLVKGFYPSDIAVEWESNGQPENNYKTTPPMLDSDGSFFLYSKLTVDKSRWQQGNVFSCSVMHEALHNHYTQKSLSLSPG
modifications: synthetic humanized antibody heavy chain variable region sequence; synthetic humanized antibody light chain variable region sequence; synthetic antibody constant region sequence
B3: 136 (antibody, V domains shown)
VH: B1 VH with Q62D, G63D, T65K
VL: B1 VL
modifications: synthetic humanized antibody heavy chain variable region sequence; synthetic humanized antibody light chain variable region sequence
B4: 67 (antibody, V domains shown)
VH: B1 VH with V2I
VL: B2 VL
modifications: synthetic humanized antibody heavy chain variable region sequence; synthetic humanized antibody light chain variable region sequence
B5: 78 (antibody, V domains shown)
VH: B1 VH with Q62D, G63D, T65K
VL: B2 VL
modifications: synthetic humanized antibody heavy chain variable region sequence; synthetic humanized antibody light chain variable region sequence
B6: 77 (antibody, V domains shown)
VH: B1 VH with K46E, Q62D, G63D, T65K
VL: B2 VL
modifications: synthetic humanized antibody heavy chain variable region sequence; synthetic humanized antibody light chain variable region sequence
B7: 132 (antibody, V domains shown)
VH: B1 VH with V2I
VL: B1 VL
modifications: synthetic humanized antibody heavy chain variable region sequence; synthetic humanized antibody light chain variable region sequence
B8: 156 (antibody, V domains shown)
VH: B1 VH with V2I
VL: B2 VL with K45Q, V48L
modifications: synthetic humanized antibody heavy chain variable region sequence; synthetic humanized antibody light chain variable region sequence
B9: 76 (antibody, V domains shown)
VH: B1 VH
VL: B2 VL
modifications: synthetic humanized antibody heavy chain variable region sequence; synthetic humanized antibody light chain variable region sequence
B10: 135 (antibody, V domains shown)
VH: B1 VH with K46E, Q62D, G63D, T65K
VL: B1 VL
modifications: synthetic humanized antibody heavy chain variable region sequence; synthetic humanized antibody light chain variable region sequence

Assays:
Assay in all cases: Selectivity ELISA of humanized antibodies for human Eph receptor
Type in all cases: binding
Details in all cases: coated protein 1 nM
human EphA10 = molecular target: T1, human EphA10
Outline: (§1)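 Read-out is A450 after TMB development stopped with 1N H2SO4. Plates bore anti-His-captured human Eph extracellular region-SEAP-His proteins at 1 nM final, made in Expi293F cells. Humanized antibody binding ran 1 h at room temperature before HRP-labeled anti-IgG detection.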

human EphB2 = molecular target: T2, human EphB2
Outline: as §1

human EphB3 = molecular target: T3, human EphB3
Outline: as §1

Molecule | hEphA10-SEAP-: absorbance at 450 nm, percentage with respect to hEphA4-SEAP-His as 100% (human EphA10) [%] | hEphB2-SEAP-: absorbance at 450 nm, percentage with respect to hEphA4-SEAP-His as 100% (human EphB2) [%] | hEphB3-SEAP-: absorbance at 450 nm, percentage with respect to hEphA4-SEAP-His as 100% (human EphB3) [%]
B1 | 5.0 | 5.1 | 5.2
B2 | 4.4 | 4.5 | 4.7
B3 | 5.2 | 5.3 | 5.5
B4 | 4.6 | 4.7 | 4.9
B5 | 5.2 | 5.1 | 5.2
B6 | 4.5 | 4.5 | 4.6
B7 | 4.7 | 4.7 | 4.7
B8 | 5.3 | 5.5 | 5.6
B9 | 4.7 | 4.9 | 5.0
B10 | 5.1 | 5.0 | 5.0
